Article PMC3751582

Biological target: Drosophila melanogaster cystathionine β-synthase (Drosophila melanogaster)
Assay: native gel or EMSA

For “Drosophila melanogaster cystathionine β-synthase (enzyme)”, the stoichiometry N was 2.
